Data on eleven substances can be found in article PMC11484851, “Structure of endothelin ETB receptor–Gi complex in a conformation stabilized by unique NPxxL motif” (Communications Biology, 2024).

Among the targets are ETBR H314A (human) (UniProt P24530); ETBR K391A (human) (UniProt P24530); ETBR M296A (human) (UniProt P24530); ETBR M300A (human) (UniProt P24530); ETBR N134A (human) (UniProt P24530); ETBR R318A (human) (UniProt P24530); ETBR S390A (human) (UniProt P24530); ETBR T324A (human) (UniProt P24530); ETBR V325A (human) (UniProt P24530); ETBR V389A (human) (UniProt P24530).
Test [1] has as its target wild-type ETB receptor, Flag-tagged, expressed in HEK293A cells (human) (UniProt P24530).
The target of test [2] is Flag-tagged wild-type endothelin type B receptor (ETBR) (human) (UniProt P24530).
Chain of Flag-tagged wild-type endothelin type B receptor (ETBR) (human) (P24530 27-442): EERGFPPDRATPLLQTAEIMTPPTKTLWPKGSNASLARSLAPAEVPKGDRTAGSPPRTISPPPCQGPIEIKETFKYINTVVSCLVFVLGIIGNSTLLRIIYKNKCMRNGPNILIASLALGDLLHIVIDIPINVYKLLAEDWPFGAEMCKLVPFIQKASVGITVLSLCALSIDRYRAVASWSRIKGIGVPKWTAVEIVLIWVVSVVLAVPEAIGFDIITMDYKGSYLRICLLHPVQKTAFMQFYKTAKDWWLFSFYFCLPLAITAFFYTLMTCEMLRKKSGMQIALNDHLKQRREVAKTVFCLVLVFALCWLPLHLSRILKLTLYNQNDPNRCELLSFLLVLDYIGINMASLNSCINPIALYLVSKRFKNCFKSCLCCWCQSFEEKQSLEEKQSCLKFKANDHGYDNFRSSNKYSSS

Chain of LgBiT-inserted Gαi1, wild type (NanoBiT G-protein construct) (P63096 whole entry): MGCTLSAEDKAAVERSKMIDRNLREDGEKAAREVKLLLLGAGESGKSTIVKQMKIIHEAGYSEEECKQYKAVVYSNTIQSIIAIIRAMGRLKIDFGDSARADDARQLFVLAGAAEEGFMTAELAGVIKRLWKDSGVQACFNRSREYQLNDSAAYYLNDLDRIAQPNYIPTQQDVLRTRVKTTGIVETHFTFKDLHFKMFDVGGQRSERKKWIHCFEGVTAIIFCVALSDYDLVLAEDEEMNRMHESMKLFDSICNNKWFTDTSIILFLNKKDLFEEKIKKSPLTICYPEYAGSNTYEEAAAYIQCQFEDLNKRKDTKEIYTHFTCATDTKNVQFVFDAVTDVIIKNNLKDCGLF
Chain of wild-type ETB receptor, Flag-tagged, expressed in HEK293A cells (human) (P24530 27-442): as the sequence (P24530 27-442) above
Chain of ETBR K391A (human) (P24530 27-442 K391A): as the sequence (P24530 27-442) above, with K365A counted along it
Chain of ETBR H314A (human) (P24530 27-442 H314A): as the sequence (P24530 27-442) above, with H288A counted along it
Chain of ETBR V325A (human) (P24530 27-442 V325A): as the sequence (P24530 27-442) above, with V299A counted along it
Chain of ETBR R318A (human) (P24530 27-442 R318A): as the sequence (P24530 27-442) above, with R292A counted along it
Chain of ETBR N134A (human) (P24530 27-442 N134A): as the sequence (P24530 27-442) above, with N108A counted along it
Chain of ETBR V389A (human) (P24530 27-442 V389A): as the sequence (P24530 27-442) above, with V363A counted along it
Chain of ETBR T324A (human) (P24530 27-442 T324A): as the sequence (P24530 27-442) above, with T298A counted along it
Chain of ETBR M300A (human) (P24530 27-442 M300A): as the sequence (P24530 27-442) above, with M274A counted along it
Chain of ETBR S390A (human) (P24530 27-442 S390A): as the sequence (P24530 27-442) above, with S364A counted along it
Chain of ETBR M296A (human) (P24530 27-442 M296A): as the sequence (P24530 27-442) above, with M270A counted along it

“Gαi1 K345A (LgBiT-inserted NanoBiT construct) (from UniProt P63096 1-354) (natural protein)” displayed a NanoBiT Gi-protein dissociation assay, ET-1-induced, HEK293A cells, mutant Gαi against wild type in test [1] of 50 % decrease.

In the case of “LgBiT-inserted Gαi1 G352A (from UniProt P63096 1-354) (natural protein)”, the Supplementary Table 1f: Emax, %WT, of the ET-1 concentration–response in the NanoBiT Gi-protein dissociation assay, HEK293A cells in test [2] was 61.8 % of WT.

Regarding “LgBiT-inserted Gαi1 K345A (from UniProt P63096 1-354) (natural protein)”, the Supplementary Table 1f: Emax, %WT, of the ET-1 concentration–response in the NanoBiT Gi-protein dissociation assay, HEK293A cells in [2] is 48.9 % of WT.

As for “LgBiT-inserted Gαi1 N347A (from UniProt P63096 1-354) (natural protein)”, in [2], the Supplementary Table 1f: Emax, %WT, of the ET-1 concentration–response in the NanoBiT Gi-protein dissociation assay, HEK293A cells was 96.5 % of WT.

As for “LgBiT-inserted Gαi1, wild type (NanoBiT G-protein construct) (from UniProt P63096 1-354) (natural protein)”, the Supplementary Table 1e: Emax, %WT, of the ET-1 concentration–response in the NanoBiT Gi-protein dissociation assay, HEK293A cells with ETBR H314A (human) was 90.2 % of WT; with ETBR K391A (human) it was 91.2 % of WT; with ETBR R318A (human), 88.2 % of WT; in the test with ETBR T324A (human), 77.3 % of WT; in the test with ETBR V389A (human), 96.3 % of WT. Besides, the Supplementary Table 1d: Emax, %WT, of the ET-1 concentration–response in the NanoBiT Gi-protein dissociation assay, HEK293A cells was 36.2 % of WT with ETBR M296A (human), 46.9 % of WT in the test with ETBR M300A (human) and 63.5 % of WT with ETBR V325A (human). Also, the Supplementary Table 1c: Emax, %WT, of the ET-1 concentration–response in the NanoBiT Gi-protein dissociation assay, HEK293A cells in the test with ETBR N134A (human) is 54.6 % of WT; with ETBR S390A (human), 28.8 % of WT. In addition, in test [2], the Supplementary Table 1c: Emax, %WT, of the ET-1 concentration–response in the NanoBiT Gi-protein dissociation assay, HEK293A cells; WT (35% plasmid) is 62.9 % of WT. In test [2], the Supplementary Table 1c: Emax, %WT, of the ET-1 concentration–response in the NanoBiT Gi-protein dissociation assay, HEK293A cells; WT (50% plasmid) is 76.5 % of WT. The Supplementary Table 1c: Emax, %WT, of the ET-1 concentration–response in the NanoBiT Gi-protein dissociation assay, HEK293A cells; WT (100% plasmid) in test [2] was 100 % of WT. In addition, the Supplementary Table 1f: Emax, %WT, of the ET-1 concentration–response in the NanoBiT Gi-protein dissociation assay, HEK293A cells; WT Gαi in [2] was 100 % of WT. In test [2], the Supplementary Table 1d (same row in 1e): Emax, %WT, of the ET-1 concentration–response in the NanoBiT Gi-protein dissociation assay, HEK293A cells; WT (100% plasmid) was 100 % of WT.

For the substance “LgBiT-inserted Gαi1 C351A (from UniProt P63096 1-354) (natural protein)”, the Supplementary Table 1f: Emax, %WT, of the ET-1 concentration–response in the NanoBiT Gi-protein dissociation assay, HEK293A cells in test [2] is 87 % of WT.

“LgBiT-inserted Gαi1 F354A (from UniProt P63096 1-354) (natural protein)”: the Supplementary Table 1f: Emax, %WT, of the ET-1 concentration–response in the NanoBiT Gi-protein dissociation assay, HEK293A cells in test [2] was 87.8 % of WT.

As for “LgBiT-inserted Gαi1 D350A (from UniProt P63096 1-354) (natural protein)”, in [2], the Supplementary Table 1f: Emax, %WT, of the ET-1 concentration–response in the NanoBiT Gi-protein dissociation assay, HEK293A cells was 92.2 % of WT.

As for “LgBiT-inserted Gαi1 D341A (from UniProt P63096 1-354) (natural protein)”, in test [2], the Supplementary Table 1f: Emax, %WT, of the ET-1 concentration–response in the NanoBiT Gi-protein dissociation assay, HEK293A cells is 92.1 % of WT.

For the substance “LgBiT-inserted Gαi1 L353A (from UniProt P63096 1-354) (natural protein)”, in [2], the Supplementary Table 1f: Emax, %WT, of the ET-1 concentration–response in the NanoBiT Gi-protein dissociation assay, HEK293A cells was 7.8 % of WT.

As for “Gαi1 G352A (LgBiT-inserted NanoBiT construct) (from UniProt P63096 1-354) (natural protein)”, the NanoBiT Gi-protein dissociation assay, ET-1-induced, HEK293A cells, mutant Gαi against wild type in test [1] was 50 % decrease.
